Results taken from patent publication US20190023793A1.

Biological target: human PD-L1 full-length protein on cells (human) (UniProt Q9NZQ7)
Assay: cell-based or functional assay

human PD-L1 full-length protein on cells (human), sequence (Q9NZQ7 19-290): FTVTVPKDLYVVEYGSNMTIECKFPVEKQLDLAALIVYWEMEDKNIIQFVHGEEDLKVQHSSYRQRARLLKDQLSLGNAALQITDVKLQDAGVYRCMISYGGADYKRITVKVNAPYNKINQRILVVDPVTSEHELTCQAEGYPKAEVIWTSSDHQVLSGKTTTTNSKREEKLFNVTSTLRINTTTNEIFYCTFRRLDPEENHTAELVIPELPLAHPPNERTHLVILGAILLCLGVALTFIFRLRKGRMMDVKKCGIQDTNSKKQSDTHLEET

MOA NFAT reporter signal (Bio-Glo) at 0.005 nm	MOA NFAT reporter signal (Bio-Glo) at 0.046 nm	MOA NFAT reporter signal (Bio-Glo) at 0.137 nm	MOA NFAT reporter signal (Bio-Glo) at 0.412 nm	MOA NFAT reporter signal (Bio-Glo) at 1.235 nm	MOA NFAT reporter signal (Bio-Glo) at 3.704 nm	MOA NFAT reporter signal (Bio-Glo) at 11.111 nm	MOA NFAT reporter signal (Bio-Glo) at 33.333 nm	MOA NFAT reporter signal (Bio-Glo) at 100.000 nm	MOA NFAT reporter signal (Bio-Glo) at 0.015 nm	MOA NFAT reporter signal (Bio-Glo) at 100.000 nm, negative control	Substance
18200	20300	23200	53100	89700	103000	97900	102000	94100	–	–	Durvalumab (antibody)
16900	17200	19200	29300	70800	96900	96500	98000	94000	18400	–	Atezolizumab (antibody)
–	–	–	–	–	–	–	–	–	–	15700	IgG1 negative control (antibody)
